Test in all cases: EMSA
One data set has as its target T1, Lin28 1-209 (Mus musculus, UniProt Q8K3Y3 1-209).
T1 sequence: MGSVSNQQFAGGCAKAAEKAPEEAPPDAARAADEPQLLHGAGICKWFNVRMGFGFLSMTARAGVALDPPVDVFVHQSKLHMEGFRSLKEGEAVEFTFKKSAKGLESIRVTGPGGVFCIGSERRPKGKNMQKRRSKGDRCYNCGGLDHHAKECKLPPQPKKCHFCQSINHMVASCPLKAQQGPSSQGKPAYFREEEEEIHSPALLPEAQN

A further data set addresses T2, Lin28 39-112 (CSD) (Mus musculus, UniProt Q8K3Y3 39-112).
T2 sequence: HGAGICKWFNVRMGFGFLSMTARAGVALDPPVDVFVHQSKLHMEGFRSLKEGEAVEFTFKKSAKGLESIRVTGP

The target of data set [1] is T3, Lin28 119-180 (NCp7-like domain) (Mus musculus, UniProt Q8K3Y3 119-180).
T3 sequence: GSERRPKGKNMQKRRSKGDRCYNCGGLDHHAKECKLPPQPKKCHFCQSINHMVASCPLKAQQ

B1: pre-let-7g (structured_RNA)
RNA: UGAGGUAGUAGUUUGUACAGUUUGAGGGUCUAUGAUACCACCCGGUACAGGAGAUAACUGUACAGGCCACUGCCUUGCC
As to B1, the dissociation constant (Kd) with Lin28 1-209 was determined as 0.15 ± 0.04 nM; with Lin28 39-112 (CSD), 41 ± 10 nM; in data set [1], 0.6 ± 0.1 nM.

What is called Kd is the free concentration of one partner at which half of the binding sites on the other are occupied at equilibrium, for simple one-to-one binding. A low value points to higher affinity.

For the origin of these results see PMC3287177.
